Here are results for four molecules from PMC9645627, “Ydj1 interaction at nucleotide-binding-domain of yeast Ssa1 impacts Hsp90 collaboration and client maturation” (PLOS Genetics, 2022).

B1: Ssa1 (wt), purified (natural protein)
chain: not shown
notes: Ssa1, cytosolic Hsp70 of S. cerevisiae; the methods say that the tag was removed; also called wt-Ssa1; wt Ssa1; not shown: His6, N-terminal, cleaved
B2: His6-Ydj1 (natural protein, S. cerevisiae, UniProt P25491 1-409, looked up)
chain: MVKETKFYDILGVPVTATDVEIKKAYRKCALKYHPDKNPSEEAAEKFKEASAAYEILSDPEKRDIYDQFGEDGLSGAGGAGGFPGGGFGFGDDIFSQFFGAGGAQRPRGPQRGKDIKHEISASLEELYKGRTAKLALNKQILCKECEGRGGKKGAVKKCTSCNGQGIKFVTRQMGPMIQRFQTECDVCHGTGDIIDPKDRCKSCNGKKVENERKILEVHVEPGMKDGQRIVFKGEADQAPDVIPGDVVFIVSERPHKSFKRDGDDLVYEAEIDLLTAIAGGEFALEHVSGDWLKVGIVPGEVIAPGMRKVIEGKGMPIPKYGGYGNLIIKFTIKFPENHFTSEENLKKLEEILPPRIVPAIPKKATVDECVLADFDPAKYNRTRASRGGANYDSDEEEQGGEGVQCASQ
notes: Ydj1, Hsp40 co-chaperone of S. cerevisiae; His6 is named and used for capture in the pull-down; also called Hsp40
B3: Ssa1-D158N, purified (natural protein)
chain: not shown
notes: Ssa1, cytosolic Hsp70 of S. cerevisiae, with D158N; the methods say that the tag was removed; not shown: His6, N-terminal, cleaved
B4: Ssa1-T175N, purified (natural protein)
chain: not shown
notes: Ssa1, cytosolic Hsp70 of S. cerevisiae, with T175N; the methods say that the tag was removed; not shown: His6, N-terminal, cleaved

Test [1] has as its target T1, Hsp82, purified (S. cerevisiae, UniProt P02829 1-709).
T1 construct: Hsp82, Hsp90 isoform of S. cerevisiae; also called Hsp90; Hsp82 isoform of Hsp90; source: plasmid pET29bHTV-HSP82
In words: BLI; Octet K2, 30°C; Hsp82 immobilised on AR2G biosensors by amine coupling; Hsp70 1.0 uM as analyte in 25 mM Hepes pH 7.4, 150 mM NaCl, 20 mM MgCl2, 20 mM KCl, 0.1% Tween-20, 0.05% Triton X-100, 1 mM ATP; association and dissociation 200 s each. Conditions: both partners purified.

The test “Ssa1-D158N, purified” deals with B3. In words: BLI; Ydj1 (0.75 uM) immobilised on the biosensor, Ssa Hsp70 at varying concentrations as analyte, with 5 mM ATP. The following applies: both partners purified.
The target in the test “Ssa1-T175N, purified” is B4. The test is described as above. Conditions: both partners purified.
For the test “Ssa1 (wt), purified”, the target named is B1. In words: BLI; Ssa1, Ssa2, Ssa3 and Ssa4 with Ydj1; set-up not told here (as in ref. 26).
The test “His6-Ydj1” addresses B2. In words: cell-based or functional assay.
The target in test [2] is T1, Hsp82, purified. In words: cell-based or functional assay.

T1 sequence (P02829 whole entry, canonical isoform): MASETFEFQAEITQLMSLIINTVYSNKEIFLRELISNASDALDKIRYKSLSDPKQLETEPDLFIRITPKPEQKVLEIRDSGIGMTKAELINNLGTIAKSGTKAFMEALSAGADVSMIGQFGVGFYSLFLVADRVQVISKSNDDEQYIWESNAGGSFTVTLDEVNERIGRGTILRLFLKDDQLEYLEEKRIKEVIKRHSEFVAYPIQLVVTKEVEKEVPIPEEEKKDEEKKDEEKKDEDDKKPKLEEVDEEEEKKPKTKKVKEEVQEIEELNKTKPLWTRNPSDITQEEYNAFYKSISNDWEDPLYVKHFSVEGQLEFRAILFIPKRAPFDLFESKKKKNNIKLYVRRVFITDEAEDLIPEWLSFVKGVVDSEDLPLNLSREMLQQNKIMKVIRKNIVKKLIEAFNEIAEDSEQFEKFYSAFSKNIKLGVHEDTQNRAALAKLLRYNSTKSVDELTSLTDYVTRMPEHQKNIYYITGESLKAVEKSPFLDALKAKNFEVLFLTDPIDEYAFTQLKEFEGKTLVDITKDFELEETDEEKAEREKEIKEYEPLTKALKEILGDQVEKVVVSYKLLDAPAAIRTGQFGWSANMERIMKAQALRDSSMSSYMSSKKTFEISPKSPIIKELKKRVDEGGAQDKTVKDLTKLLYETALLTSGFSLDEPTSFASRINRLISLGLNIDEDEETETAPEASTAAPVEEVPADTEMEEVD
Chain of Ssa1 (wt), purified (P10591 whole entry): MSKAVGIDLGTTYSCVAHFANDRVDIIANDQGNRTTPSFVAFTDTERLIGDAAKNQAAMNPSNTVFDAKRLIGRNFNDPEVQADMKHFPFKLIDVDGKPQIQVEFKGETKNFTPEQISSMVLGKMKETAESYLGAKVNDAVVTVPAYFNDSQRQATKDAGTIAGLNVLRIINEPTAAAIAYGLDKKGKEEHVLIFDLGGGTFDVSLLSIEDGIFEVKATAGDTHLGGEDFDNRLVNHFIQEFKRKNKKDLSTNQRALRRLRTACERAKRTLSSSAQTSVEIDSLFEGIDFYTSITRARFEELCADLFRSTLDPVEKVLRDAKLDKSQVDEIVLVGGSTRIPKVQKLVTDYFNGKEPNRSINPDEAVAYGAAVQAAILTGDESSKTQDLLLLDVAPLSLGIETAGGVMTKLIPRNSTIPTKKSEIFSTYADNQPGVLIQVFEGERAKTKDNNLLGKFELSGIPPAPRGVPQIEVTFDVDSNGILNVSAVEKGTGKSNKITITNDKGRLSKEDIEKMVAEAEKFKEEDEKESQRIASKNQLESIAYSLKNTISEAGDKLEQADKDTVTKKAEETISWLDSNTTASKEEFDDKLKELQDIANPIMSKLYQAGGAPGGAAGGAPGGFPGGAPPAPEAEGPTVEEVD
Chain of Ssa1-D158N, purified (P10591 whole entry D158N): as the sequence (P10591 whole entry) above, with D158N counted along it
Chain of Ssa1-T175N, purified (P10591 whole entry T175N): as the sequence (P10591 whole entry) above, with T175N counted along it

Take B1: in the test with Hsp82, purified [1], the binding result is on record as “binds”.
As to B2, the binding result in the test with Ssa1-D158N, purified is on record as “binds”; with Ssa1-T175N, purified, “binds”; with Ssa1 (wt), purified, “binds”.
For B3, the “fold by which the BLI response of wt-Ssa1 at equilibrium is higher than that of this mutant” value in the test with Hsp82, purified [1] was roughly 2 fold. In addition, the “refolding of heat-denatured luciferase by Hsp70 with Ydj1, fold, time course to 30 min (wt Ssa1:Ydj1: 30-fold)” value in the test with His6-Ydj1 is roughly 60 fold. In the test with Hsp82, purified [2], the “fold increase in luciferase refolding upon addition of Hsp90 (Hsp82) and Sti1 to a reaction with Ydj1 and Hsp70 (wt Ssa1: 4)” value is 2 fold.
Regarding B4, the “fold by which the BLI response of wt-Ssa1 at equilibrium is higher than that of this mutant” value with Hsp82, purified [1] is roughly 4 fold. Also, in the test with His6-Ydj1, the “refolding of heat-denatured luciferase by Hsp70 with Ydj1, fold, time course to 30 min (wt Ssa1:Ydj1: 30-fold)” value is roughly 60 fold. For the same molecule, the “fold increase in luciferase refolding upon addition of Hsp90 (Hsp82) and Sti1 to a reaction with Ydj1 and Hsp70 (wt Ssa1: 4)” value with Hsp82, purified [2] stood at 2 fold.
